Reference: paper PMC5347741

Assay: immunohistochemistry, nude mouse xenograft
Conditions: glycan changed form; control: untransfected CAOV3 cells

B1: CD147: FUT1 transfection (CA-FUT1) (protein)
parent chain: MAAALFVLLGFALLGTHGASGAAGTVFTTVEDLGSKILLTCSLNDSATEVTGHRWLKGGVVLKEDALPGQKTEFKVDSDDQWGEYSCVFLPEPMGTANIQLHGPPRVKAVKSSEHINEGETAMLVCKSESVPPVTDWAWYKITDSEDKALMNGSESRFFVSSSQGRSELHIENLNMEADPGQYRCNGTSSKGSDQAIITLRVRSHLAALWPFLGIVAEVLVLVTIIFIYEKRRKPEDVLDDDDAGSAPLKSSGQHQNDKGKNVRQRNSS
- expression_or_secretion: increases
